Test system: MS2 coat protein
Test: apparent KD of MS2 coat protein; designed switch direction (-1 OFF switch, 1 ON switch): -1; higher = weaker reporter binding
Method in brief: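 An oligonucleotide input, 200 uM small-molecule ligand, or no input was present during titration of SNAP-549-labelled MS2 coat protein, which was doubled from 0.7 or 1.5 nM to 3 µM. Designed RNA switches had been transcribed on Illumina chips by stalled E. coli RNA polymerase. Apparent KD per design is the median over clusters of curves fitted to normalised cluster fluorescence.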

[1] = Eterna round: R95, input ligand: microRNA oligo, concentration not stated
[2] = Eterna round: R95, input ligand: FMN 200 uM
[3] = Eterna round: R95, input ligand: none
[4] = input ligand: microRNA oligo, concentration not stated

| Sequence | apparent KD of MS2 coat protein (input ligand: FMN 200 uM) [nM] | apparent KD of MS2 coat protein (input ligand: none) [nM] | apparent KD of MS2 coat protein [1] [nM] | apparent KD of MS2 coat protein [2] [nM] | apparent KD of MS2 coat protein [3] [nM] | apparent KD of MS2 coat protein [4] [nM] |
| --- | --- | --- | --- | --- | --- | --- |
| AGGGUUUGAGGAUAUAUCUGGUGGGACAUGAGGAUCACCCAUGUUCAUGUCGUAUCCUCAGUAGAAGGCAGACAGG [Eternabot (Original) Solution 14] (Eterna round: R97, puzzle: Exclusion 5) | 13.2 | 13.4 | – | – | – | – |
| AGGUCACAUGAGGAUCACCCAUGUGAGGAUAUAGACUCAAGAGCUUCGGCUCUCAAGUUUAGAAGGCGCUAUGA [EX1 #51] (Eterna round: R97, puzzle: Exclusion 1) | 25.8 | 26.3 | – | – | – | – |
| AGUAACAGAGGAUAUACUAUUUUAUGUGUUUGUUAUUUUAAACAUGAGGAUCACCCAUGUAGAAGGCUGAAUGA [JMF 100] (puzzle: Exclusion 2) | – | – | 23.5 | – | – | – |
| AGUAACAGAGGAUAUACUGUUUUAUGUGUUUAUUGUUUUGAACAUGAGGAUCACCCAUGUAGAAGGCUGAAUAA [JMF 94] (puzzle: Exclusion 2) | – | – | 21.7 | – | – | – |
| AGUAACCGUCACGAAAGUGAUGGUUACACAAGAAAUGAAACAUGAGGAUCACCCAUGUCCUCAUUUGCUCGUCUUAU [Sensor 3 - 38] (puzzle: Sensor v3, turn-off variant 2) | – | – | 288 | 176 | 259 | – |
| AGUAACUAUCACGAAAGUGAUAGUUACACAAGCAGUGAAACAUGAGGAUCACCCAUGUCCUCAUAUGCUCGUCUUAU [Sensor 3 - 30] (puzzle: Sensor v3, turn-off variant 2) | – | – | 1280 | 119 | 114 | – |
| AGUAAGCUAGGAUAUGCUUUGGGAAAGCCUUCCUUCGAUAAACUUGAGGAUCACCCAAGUAGAAGGAGCUAAAU [jl-ex2.4.48 ViennaUCT mod] (Eterna round: R97, puzzle: Exclusion 2) | 16.7 | 16 | – | – | – | – |
| AGUACUAACACCGUUGUGUUAGUACAAUAAGCUUGUGAAACAUGAGGAUCACCCAUGUCCUCAUAAGCUCGUCUUAU [salish99_TOv2_r3_071] (puzzle: Sensor v3, turn-off variant 2) | – | – | 784 | 16.3 | 16.2 | – |
| AGUACUAACACGAAAGUGUUAGUACAAUAAGCUAGUGGAACAUGAGGAUCACCCAUGUCCUCAUUAGCUCGUCUUAU [Mat - Sensor v3 - Turn-off var 2 - D33] (puzzle: Sensor v3, turn-off variant 2) | – | – | 36.6 | 16.3 | 13.4 | – |
| AGUACUAACACGAAAGUGUUAGUACUAUAAGCUUGUGAAACAUGAGGAUCACCCAUGUCCUCAUAAGCUCGUCUUAU [Mat - Sensor v3 - Turn-off var 2 - D102] (puzzle: Sensor v3, turn-off variant 2) | – | – | 780 | 17.3 | 17 | – |
| AGUACUAACACGAAAGUGUUAGUACUAUAAGUUUGUGUUACAUGAGGAUCACCCAUGUCCUCAUAAGCUCGUCUUGU [Mat - Sensor v3 - Turn-off var 2 - D95] (puzzle: Sensor v3, turn-off variant 2) | – | – | 199 | 911 | 626 | – |
| AGUACUAACACGAAAGUGUUUGUACAAUAAGCUUGUGAAACAUGAGGAUCACCCAUGUCCUCAUAAGCUCGUCUUAU [salish99_TOv2_r3_035] (puzzle: Sensor v3, turn-off variant 2) | – | – | 580 | 17.5 | 17.1 | – |
| AGUACUAACACGAUAGUGUUAGUACUAUAAGCUUGUGUUACAUGAGGAUCACCCAUGUCCUCAUAAGCUCGUCUUGA [Mat - Sensor v3 - Turn-off var 2 - D92] (puzzle: Sensor v3, turn-off variant 2) | – | – | 467 | 33.3 | 40.6 | – |
| AGUACUAACACGUUAGUGUUAGUACAAUAAGCUUGUGAAACAUGAGGAUCACCCAUGUCCUCAUAAGCUCGUCUUAU [salish99_TOv2_r3_056] (Eterna round: R96, puzzle: Sensor v3, turn-off variant 2) | 16 | 17.9 | – | – | – | 466 |
| AGUACUAACACGUUAGUGUUAGUACAAUAAGCUUGUGAAACAUGAGGAUCACCCAUGUCCUCAUAAGCUCGUCUUAU [salish99_TOv2_r3_056] (puzzle: Sensor v3, turn-off variant 2) | – | – | 645 | 16.7 | 16.1 | – |
| AGUACUAUCACGAAAGUGAUAGUACAAUAAGCAAGUGAAACAUGAGGAUCACCCAUGUCCUCAUUUGCUCGUCUUAU [JL turnoff v2 74] (Eterna round: R96, puzzle: Sensor v2, turn-off variant 2) | 16.7 | 19.1 | – | – | – | 400 |
| AGUACUAUCACGAAAGUGAUAGUACAAUAAGCAAGUGAAACAUGAGGAUCACCCAUGUCCUCAUUUGCUCGUCUUAU [salish99_TOv2_r3_200again] (puzzle: Sensor v3, turn-off variant 2) | – | – | 749 | 17.8 | 17 | – |

| Sequence | apparent KD of MS2 coat protein (input ligand: FMN 200 uM) [nM] | apparent KD of MS2 coat protein (input ligand: none) [nM] | apparent KD of MS2 coat protein [1] [nM] | apparent KD of MS2 coat protein [2] [nM] | apparent KD of MS2 coat protein [3] [nM] | apparent KD of MS2 coat protein [4] [nM] |
| --- | --- | --- | --- | --- | --- | --- |
| AGUACUAUGCGUGCUGACAUGCGUAGUGCAGCAGGUGUUACAUGAGGAUCACCCAUGUCCUCAUUUGCUCGUCUUAA [Mat - Sensor v3 - Turn-off var 2 - D16] (puzzle: Sensor v3, turn-off variant 2) | – | – | 115 | 88 | 97.6 | – |
| AGUAGGAGAGGAUAUACAAGAAGUCGAAAGACUUCAACUCAACAUGAGGAUCACCCAUGUAGAAGGCUCCUACA [Omei Ex2 BD A5] (Eterna round: R97, puzzle: Exclusion 2) | 83.3 | 17.9 | – | – | – | – |
| AGUAGUAGUAUCCGAUCCUACAUGAGGAUCACCCAUGUAGCUAGACGUGCACGCGAUGCUCGUCGGACUACCAGAUG [salish99_TOv1_r3_043] (puzzle: Sensor v3, turn-off variant 1) | – | – | 46.9 | 48 | 63.4 | – |
| AGUAGUAGUAUCCGAUCCUACAUGAGGAUCACCCAUGUGGCUAGACGUGCACGCGAUGCUCGUCAGACUACCAGAUG [salish99_TOv1_r3_038] (puzzle: Sensor v3, turn-off variant 1) | – | – | 269 | 404 | 506 | – |
| AGUAGUAGUAUCCGAUCCUACAUGAGGAUCACCCAUGUUGCUAGACGUGCACGCGAUGCUCGUCAGACUACCAGAUG [salish99_TOv1_r3_050] (puzzle: Sensor v3, turn-off variant 1) | – | – | 150 | 326 | 157 | – |
| AGUAGUAGUAUCCGAUCUUACAUGAGGAUCACCCAUGUAUCUAGACGUGCACGCGAUGCUCGUCAGACUACCAGAUG [salish99_TOv1_r3_052] (puzzle: Sensor v3, turn-off variant 1) | – | – | 66.3 | 49.3 | 60.1 | – |
| AGUAUGCGGCAGGAUAUCCAUCCGCGGAAAGGUGGAGAAGGGCUGACAUGAGGAUCACCCAUGUGCGUCCUGUA [salish99_ex6_r4_029] (Eterna round: R97, puzzle: Exclusion 6) | 33.5 | 20.4 | – | – | – | – |
| AGUCGAAAGACAAAUAAAAACAUGAGGAUCACCCAUGUAAUGGGUGAAAACAAGCUCACCGUUCGUCUUAAAGAAAA [JL turnoff v1 57] (Eterna round: R96, puzzle: Sensor v2, turn-off variant) | 607 | 302 | – | – | – | 40.7 |
| AGUCUGCUAGGAUAUACAUGAGGAUCACCCAUGUCUAUCAAUAGACUAUUAACCUGGUGUAGAAGGAGCUUGUA [Onatlacein] (puzzle: Exclusion 3) | – | – | 11.1 | – | – | – |
| AGUGCUAACACGUUGGUGUUAGUACCAUAAGCUUGUGAUACAUGAGGAUCACCCAUGUCCUCAUAAGCUCGUCUUAU [salish99_TOv2_r2_098] (puzzle: Sensor v3, turn-off variant 2) | – | – | 508 | 30.6 | 29.4 | – |
| AGUGUGUGGCAGGAUAUUCCGGUCGUUGGUCGGGAAGAAGGGUCUACAUGAGGAUCACCCAUGUGAGCGGUUGA [Ex6 #50] (Eterna round: R97, puzzle: Exclusion 6) | 489 | 379 | – | – | – | – |
| AGUGUGUUAGGAUAUCGCAUAUGCUGGAGGAGGUGGAGUUACGAGAAGGAACAUGAGGAUCACCCAUGUAGGAC [JR_Exclu4_Sub050] (puzzle: Exclusion 4) | – | – | 25.7 | – | – | – |
| AGUUCACAUGAGGAUCACCCAUGUGAGGAUAUGGAUUCGCUGGCCGUAGCCAGUGGAUCCAGAAGGCGCGUGAU [JL-ex1-4.15] (Eterna round: R97, puzzle: Exclusion 1) | 55.7 | 65.1 | – | – | – | – |
| AGUUGGCGAGGAUAUACAUGAGGAUCACCCAUGUGAAGAAGAAGAGUGAGGAAGAAAAGUAGAAGGCGCUGACA [Mat - Exclusion 3 - Mod of Salish D38] (puzzle: Exclusion 3) | – | – | 84 | 87.9 | 50.7 | – |
| AGUUGGCGAGGAUAUACAUGAGGAUCACCCAUGUGAGAGAAUAAAGUGAGAAAGAAAAGUAGAAGGCGCUGACG [Mat - Exclusion 3 - Mod of Salish D50] (puzzle: Exclusion 3) | – | – | 62.7 | 82.8 | 41.4 | – |
| AGUUGGCGAGGAUAUACAUGAGGAUCACCCAUGUGAGAGAUACUAGUGAGGUCGGUUAGUAGAAGGCGCUGACA [Mat X3R4 m16] (Eterna round: R97, puzzle: Exclusion 3) | 344 | 35.5 | – | – | – | – |
